Consider four molecules from patent US20170232076A1.

Test [1] has as its target cation-independent mannose-6-phosphate receptor (CI-M6PR), as used in the in vitro receptor binding assay (ELISA). The test can be described thus: ELISA, CI-M6PR binding, detection with antibody to human Naglu.
For test [2] the target is unchanged. The test can be described thus: in vitro CI-M6PR binding assay.
Test [3] has as its target cation-independent mannose-6-phosphate receptor (CI-M6PR) on cells overexpressing CI-M6PR. The test can be described thus: cellular uptake assay on cells overexpressing CI-M6PR, intracellular Naglu activity read-out.

B1: Naglu-CREG fusion protein (produced in HT-1080 cells) (enzyme)
chain: DEAREAAAVRALVARLLGPGPAADFSVSVERALAAKPGLDTYSLGGGGAARVRVRGSTGVAAAAGLHRYLRDFCGCHVAWSGSQLRLPRPLPAVPGELTEATPNRYRYYQNVCTQSYSFVWWDWARWEREIDWMALNGINLALAWSGQEAIWQRVYLALGLTQAEINEFFTGPAFLAWGRMGNLHTWDGPLPPSWHIKQLYLQHRVLDQMRSFGMTPVLPAFAGHVPEAVTRVFPQVNVTKMGSWGHFNCSYSCSFLLAPEDPIFPIIGSLFLRELIKEFGTDHIYGADTFNEMQPPSSEPSYLAAATTAVYEAMTAVDTEAVWLLQGWLFQHQPQFWGPAQIRAVLGAVPRGRLLVLDLFAESQPVYTRTASFQGQPFIWCMLHNFGGNHGLFGALEAVNGGPEAARLFPNSTMVGTGMAPEGISQNEVVYSLMAELGWRKDPVPDLAAWVTSFAARRYGVSHPDAGAAWRLLLRSVYNCSGEACRGHNRSPLVRRPSLQMNTSIWYNRSDVFEAWRLLLTSAPSLATSPAFRYDLLDLTRQAVQELVSLYYEEARSAYLSKELASLLRAGGVLAYELLPALDEVLASDSRFLLGSWLEQARAAAVSEAEADFYEQNSRYQLTLWGPEGNILDYANKQLAGLVANYYTPRWRLFLEALVDSVAQGIPFQQHQFDKNVFQLEQAFVLSKQRYPSQPRGDTVDLAKKIFLKYYPRWVAGSWGAPGGGGGAAAAAGGGGGGAPGGGGGAAAAAGGGGGGAPGGGGGAAAAAGGGGGGAPRGGRDHGDWDEASRLPPLPPREDAARVARFVTHVSDWGALATISTLEAVRGRPFADVLSLSDGPPGAGSGVPYFYLSPLQLSVSNLQENPYATLTMTLAQTNFCKKHGFPLCVHIMLSGTVTKVNETEMDIAKHSLFIRHPEMKTWPSSHNWFFAKLNITNIWVLDYFGGPKIVTPEEYYNVTVQ
modifications: N-linked glycosylation sites in the CREG part marked (N); binding is M6P-dependent
As a reminder, the Kd is a measure of binding affinity in units of concentration. On to B1, for which the figures for the Kd in test [1] and in test [2] were 1.25 nM and 2.5 nM, respectively.

B2: Naglu-CREG fusion protein produced in HT-1080 cells overexpressing GNPT (enzyme)
chain: DEAREAAAVRALVARLLGPGPAADFSVSVERALAAKPGLDTYSLGGGGAARVRVRGSTGVAAAAGLHRYLRDFCGCHVAWSGSQLRLPRPLPAVPGELTEATPNRYRYYQNVCTQSYSFVWWDWARWEREIDWMALNGINLALAWSGQEAIWQRVYLALGLTQAEINEFFTGPAFLAWGRMGNLHTWDGPLPPSWHIKQLYLQHRVLDQMRSFGMTPVLPAFAGHVPEAVTRVFPQVNVTKMGSWGHFNCSYSCSFLLAPEDPIFPIIGSLFLRELIKEFGTDHIYGADTFNEMQPPSSEPSYLAAATTAVYEAMTAVDTEAVWLLQGWLFQHQPQFWGPAQIRAVLGAVPRGRLLVLDLFAESQPVYTRTASFQGQPFIWCMLHNFGGNHGLFGALEAVNGGPEAARLFPNSTMVGTGMAPEGISQNEVVYSLMAELGWRKDPVPDLAAWVTSFAARRYGVSHPDAGAAWRLLLRSVYNCSGEACRGHNRSPLVRRPSLQMNTSIWYNRSDVFEAWRLLLTSAPSLATSPAFRYDLLDLTRQAVQELVSLYYEEARSAYLSKELASLLRAGGVLAYELLPALDEVLASDSRFLLGSWLEQARAAAVSEAEADFYEQNSRYQLTLWGPEGNILDYANKQLAGLVANYYTPRWRLFLEALVDSVAQGIPFQQHQFDKNVFQLEQAFVLSKQRYPSQPRGDTVDLAKKIFLKYYPRWVAGSWGAPGGGGGAAAAAGGGGGGAPGGGGGAAAAAGGGGGGAPGGGGGAAAAAGGGGGGAPRGGRDHGDWDEASRLPPLPPREDAARVARFVTHVSDWGALATISTLEAVRGRPFADVLSLSDGPPGAGSGVPYFYLSPLQLSVSNLQENPYATLTMTLAQTNFCKKHGFPLCVHIMLSGTVTKVNETEMDIAKHSLFIRHPEMKTWPSSHNWFFAKLNITNIWVLDYFGGPKIVTPEEYYNVTVQ
modifications: increased M6P on N-linked glycans (co-expression with GNPT)
As to B2, the Kd in test [2] is 0.41 nM.

B3: Naglu-SapDC fusion protein (produced in HT-1080 cells) (enzyme)
chain: DEAREAAAVRALVARLLGPGPAADFSVSVERALAAKPGLDTYSLGGGGAARVRVRGSTGVAAAAGLHRYLRDFCGCHVAWSGSQLRLPRPLPAVPGELTEATPNRYRYYQNVCTQSYSFVWWDWARWEREIDWMALNGINLALAWSGQEAIWQRVYLALGLTQAEINEFFTGPAFLAWGRMGNLHTWDGPLPPSWHIKQLYLQHRVLDQMRSFGMTPVLPAFAGHVPEAVTRVFPQVNVTKMGSWGHFNCSYSCSFLLAPEDPIFPIIGSLFLRELIKEFGTDHIYGADTFNEMQPPSSEPSYLAAATTAVYEAMTAVDTEAVWLLQGWLFQHQPQFWGPAQIRAVLGAVPRGRLLVLDLFAESQPVYTRTASFQGQPFIWCMLHNFGGNHGLFGALEAVNGGPEAARLFPNSTMVGTGMAPEGISQNEVVYSLMAELGWRKDPVPDLAAWVTSFAARRYGVSHPDAGAAWRLLLRSVYNCSGEACRGHNRSPLVRRPSLQMNTSIWYNRSDVFEAWRLLLTSAPSLATSPAFRYDLLDLTRQAVQELVSLYYEEARSAYLSKELASLLRAGGVLAYELLPALDEVLASDSRFLLGSWLEQARAAAVSEAEADFYEQNSRYQLTLWGPEGNILDYANKQLAGLVANYYTPRWRLFLEALVDSVAQGIPFQQHQFDKNVFQLEQAFVLSKQRYPSQPRGDTVDLAKKIFLKYYPRWVAGSWGAPGGGGGAAAAAGGGGGGAPGGGGGAAAAAGGGGGGAPGGGGGAAAAAGGGGGGAPDGGFCEVCKKLVGYLDRNLEKNSTKQEILAALEKGCSFLPDPYQKQCDQFVAEYEPVLIEILVEVMDPSFVCLKIGACPSAHKPLLGTEKCIWGPSYWCQNTETAAQCNAVEHCKRHVWN
modifications: N-linked glycosylation site in the SapDC part marked (N); M6P content 0.75 mol/mol (M6P/Protein)
As for B3, the results for the equilibrium dissociation constant (Kd) in test [1], in test [2] and in test [3] were 5.5 nM, 2.9 nM and 209 nM, respectively.

B4: Naglu-SapDC fusion protein produced in HT-1080 cells overexpressing GNPT (enzyme)
chain: DEAREAAAVRALVARLLGPGPAADFSVSVERALAAKPGLDTYSLGGGGAARVRVRGSTGVAAAAGLHRYLRDFCGCHVAWSGSQLRLPRPLPAVPGELTEATPNRYRYYQNVCTQSYSFVWWDWARWEREIDWMALNGINLALAWSGQEAIWQRVYLALGLTQAEINEFFTGPAFLAWGRMGNLHTWDGPLPPSWHIKQLYLQHRVLDQMRSFGMTPVLPAFAGHVPEAVTRVFPQVNVTKMGSWGHFNCSYSCSFLLAPEDPIFPIIGSLFLRELIKEFGTDHIYGADTFNEMQPPSSEPSYLAAATTAVYEAMTAVDTEAVWLLQGWLFQHQPQFWGPAQIRAVLGAVPRGRLLVLDLFAESQPVYTRTASFQGQPFIWCMLHNFGGNHGLFGALEAVNGGPEAARLFPNSTMVGTGMAPEGISQNEVVYSLMAELGWRKDPVPDLAAWVTSFAARRYGVSHPDAGAAWRLLLRSVYNCSGEACRGHNRSPLVRRPSLQMNTSIWYNRSDVFEAWRLLLTSAPSLATSPAFRYDLLDLTRQAVQELVSLYYEEARSAYLSKELASLLRAGGVLAYELLPALDEVLASDSRFLLGSWLEQARAAAVSEAEADFYEQNSRYQLTLWGPEGNILDYANKQLAGLVANYYTPRWRLFLEALVDSVAQGIPFQQHQFDKNVFQLEQAFVLSKQRYPSQPRGDTVDLAKKIFLKYYPRWVAGSWGAPGGGGGAAAAAGGGGGGAPGGGGGAAAAAGGGGGGAPGGGGGAAAAAGGGGGGAPDGGFCEVCKKLVGYLDRNLEKNSTKQEILAALEKGCSFLPDPYQKQCDQFVAEYEPVLIEILVEVMDPSFVCLKIGACPSAHKPLLGTEKCIWGPSYWCQNTETAAQCNAVEHCKRHVWN
modifications: increased M6P on N-linked glycans; M6P content 1.84 mol/mol (M6P/Protein)
Consider B4, for which the Kd in test [2] worked out at 0.23 nM; in test [3], 14.9 nM. The fold higher affinity than Naglu-SapDC produced in cells expressing Naglu-SapDC alone in test [3] worked out at 14 fold.
